Results published in paper PMC9482650, “Quantitative fragmentomics allow affinity mapping of interactomes” (Nature Communications, 2022).

T1: TJP3_3, O95049
T1 sequence (O95049 375-456, limits assumed, looked up): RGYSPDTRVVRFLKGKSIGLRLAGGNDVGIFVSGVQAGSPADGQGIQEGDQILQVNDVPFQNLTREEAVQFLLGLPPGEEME

T2: SNTG2, Q9NY99
T2 sequence (Q9NY99 68-166, limits assumed, looked up): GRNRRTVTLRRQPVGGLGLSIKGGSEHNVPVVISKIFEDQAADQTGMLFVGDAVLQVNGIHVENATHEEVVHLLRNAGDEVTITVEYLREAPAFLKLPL

T3: PDZD7_3, Q9H5P4
T3 sequence (Q9H5P4 857-944, limits assumed, looked up): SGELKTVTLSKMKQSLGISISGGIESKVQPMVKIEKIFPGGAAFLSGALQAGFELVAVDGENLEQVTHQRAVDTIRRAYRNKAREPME

T4: FRMPD1, Q5SYB0
T4 sequence (Q5SYB0 52-145, limits assumed, looked up): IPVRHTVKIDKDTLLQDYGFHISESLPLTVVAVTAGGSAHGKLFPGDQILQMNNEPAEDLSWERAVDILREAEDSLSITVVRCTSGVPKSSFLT

T5: DVL3, Q92997
T5 sequence (Q92997 244-331, limits assumed, looked up): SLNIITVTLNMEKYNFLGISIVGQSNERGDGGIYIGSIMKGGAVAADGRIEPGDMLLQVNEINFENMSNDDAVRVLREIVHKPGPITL

T6: PTPN13_1, Q12923
T6 sequence (Q12923 1088-1188, limits assumed, looked up): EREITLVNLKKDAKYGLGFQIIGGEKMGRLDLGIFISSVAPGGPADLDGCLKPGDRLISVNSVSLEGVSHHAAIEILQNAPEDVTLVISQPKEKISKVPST

T7: RHPN1, Q8TCX5
T7 sequence (Q8TCX5 508-602, limits assumed, looked up): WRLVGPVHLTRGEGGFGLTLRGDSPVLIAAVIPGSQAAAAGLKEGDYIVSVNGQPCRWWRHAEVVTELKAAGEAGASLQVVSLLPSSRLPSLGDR

T8: LIN7C, Q9NUP9
T8 sequence (Q9NUP9 88-185, limits assumed, looked up): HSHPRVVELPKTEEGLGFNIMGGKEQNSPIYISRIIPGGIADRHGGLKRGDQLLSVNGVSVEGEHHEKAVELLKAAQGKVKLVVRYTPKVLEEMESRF

T9: SNTA1, Q13424
T9 sequence (Q13424 82-180, limits assumed, looked up): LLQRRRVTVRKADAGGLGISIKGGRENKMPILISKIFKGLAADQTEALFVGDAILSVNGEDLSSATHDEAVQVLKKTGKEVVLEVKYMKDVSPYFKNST

T10: TX1BP3, O14907
T10 sequence (O14907 10-122, limits assumed, looked up): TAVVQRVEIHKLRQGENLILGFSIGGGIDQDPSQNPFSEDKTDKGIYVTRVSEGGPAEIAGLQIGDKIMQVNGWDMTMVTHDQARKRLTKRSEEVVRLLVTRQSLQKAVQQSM

T11: APBA3_1, O96018
T11 sequence (O96018 389-490, limits assumed, looked up): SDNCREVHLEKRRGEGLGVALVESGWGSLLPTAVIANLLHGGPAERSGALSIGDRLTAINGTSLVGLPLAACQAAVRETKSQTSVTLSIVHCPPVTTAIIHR

T12: HTRA3, P83110
T12 sequence (P83110 354-453, limits assumed, looked up): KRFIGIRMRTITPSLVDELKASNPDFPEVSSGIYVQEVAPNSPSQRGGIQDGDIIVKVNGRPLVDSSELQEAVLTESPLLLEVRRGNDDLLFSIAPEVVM

B1: UNC93A, Q86WB7 (peptide)
chain: AEDEEIQTKM
B2: NOS1AP, O75052 (peptide)
chain: GDGLDDEIAV

What follows are binders tested against T1, TJP3_3, O95049 (assay: holdup assay). Settings: plain residues with an end cap or a label only (N-terminal biotin on a linker: ado-ado).
Design: key: below the threshold = too weak to quantify, mostly under pKd 3.1 to 4

| pKd | Binder |
| --- | --- |
| below the threshold | B1 |
| below the threshold | B2 |

What follows are binders tested against ARHGEF12, Q9NZN5-2 (assay: holdup assay). Settings: plain residues with an end cap or a label only (N-terminal biotin on a linker: ado-ado).
ARHGEF12, Q9NZN5-2, sequence (Q9NZN5 other isoform, or with tags, fused parts or gaps): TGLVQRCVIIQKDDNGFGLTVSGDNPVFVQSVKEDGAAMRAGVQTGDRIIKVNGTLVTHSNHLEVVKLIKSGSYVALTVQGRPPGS
Design: key: below the threshold = too weak to quantify, mostly under pKd 3.1 to 4

| pKd | Binder |
| --- | --- |
| below the threshold | B1 |
| below the threshold | B2 |

The binders below were run against MAST1, Q9Y2H9 (assay: holdup assay). Settings: plain residues with an end cap or a label only (N-terminal biotin on a linker: ado-ado).
MAST1, Q9Y2H9, sequence (Q9Y2H9 962-1065): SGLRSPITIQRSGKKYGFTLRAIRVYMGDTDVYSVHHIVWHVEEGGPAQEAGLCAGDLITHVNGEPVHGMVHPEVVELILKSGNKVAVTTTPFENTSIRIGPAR
Design: key: below the threshold = too weak to quantify, mostly under pKd 3.1 to 4

| pKd | Binder |
| --- | --- |
| 4.72 | B1 |
| 3.72 | B2 |

The binders below were run against T2, SNTG2, Q9NY99 (assay: holdup assay). Settings: plain residues with an end cap or a label only (N-terminal biotin on a linker: ado-ado).
Design: key: below the threshold = too weak to quantify, mostly under pKd 3.1 to 4

| pKd | Binder |
| --- | --- |
| below the threshold | B1 |
| below the threshold | B2 |

What follows are binders tested against T3, PDZD7_3, Q9H5P4 (assay: holdup assay). Settings: plain residues with an end cap or a label only (N-terminal biotin on a linker: ado-ado).
Design: key: below the threshold = too weak to quantify, mostly under pKd 3.1 to 4

| pKd | Binder |
| --- | --- |
| below the threshold | B1 |
| below the threshold | B2 |

The binders below were run against T4, FRMPD1, Q5SYB0 (assay: holdup assay). Settings: plain residues with an end cap or a label only (N-terminal biotin on a linker: ado-ado).
Design: key: below the threshold = too weak to quantify, mostly under pKd 3.1 to 4

| pKd | Binder |
| --- | --- |
| below the threshold | B1 |
| below the threshold | B2 |

These binders were tested against T5, DVL3, Q92997 (assay: holdup assay). Settings: plain residues with an end cap or a label only (N-terminal biotin on a linker: ado-ado).
Design: key: below the threshold = too weak to quantify, mostly under pKd 3.1 to 4

| pKd | Binder |
| --- | --- |
| below the threshold | B1 |
| below the threshold | B2 |

These binders were tested against T6, PTPN13_1, Q12923 (assay: holdup assay). Settings: plain residues with an end cap or a label only (N-terminal biotin on a linker: ado-ado).
Design: key: below the threshold = too weak to quantify, mostly under pKd 3.1 to 4

| pKd | Binder |
| --- | --- |
| below the threshold | B1 |
| below the threshold | B2 |

These binders were tested against T7, RHPN1, Q8TCX5 (assay: holdup assay). Settings: plain residues with an end cap or a label only (N-terminal biotin on a linker: ado-ado).
Design: key: below the threshold = too weak to quantify, mostly under pKd 3.1 to 4

| pKd | Binder |
| --- | --- |
| 3.67 | B1 |
| below the threshold | B2 |

Each binder was assayed against T8, LIN7C, Q9NUP9 (assay: holdup assay). Settings: plain residues with an end cap or a label only (N-terminal biotin on a linker: ado-ado).
Design: key: below the threshold = too weak to quantify, mostly under pKd 3.1 to 4

| pKd | Binder |
| --- | --- |
| below the threshold | B1 |
| below the threshold | B2 |

Each binder was assayed against PTPN3, P26045 (assay: holdup assay). Settings: plain residues with an end cap or a label only (N-terminal biotin on a linker: ado-ado).
PTPN3, P26045, sequence (P26045 505-587): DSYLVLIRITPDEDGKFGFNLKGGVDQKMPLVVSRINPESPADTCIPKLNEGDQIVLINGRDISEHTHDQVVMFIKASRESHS
Design: key: below the threshold = too weak to quantify, mostly under pKd 3.1 to 4

| pKd | Binder |
| --- | --- |
| 4.17 | B1 |
| 3.79 | B2 |

These binders were tested against Inadl_5, Q8NI35 (assay: holdup assay). Settings: plain residues with an end cap or a label only (N-terminal biotin on a linker: ado-ado).
Inadl_5, Q8NI35, sequence (Q8NI35 673-780): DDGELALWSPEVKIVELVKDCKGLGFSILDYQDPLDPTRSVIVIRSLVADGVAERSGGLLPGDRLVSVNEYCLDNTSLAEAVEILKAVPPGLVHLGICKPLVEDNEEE
Design: key: below the threshold = too weak to quantify, mostly under pKd 3.1 to 4

| pKd | Binder |
| --- | --- |
| below the threshold | B1 |
| below the threshold | B2 |

The binders below were run against FRMPD2_2, Q68DX3 (assay: holdup assay). Settings: plain residues with an end cap or a label only (N-terminal biotin on a linker: ado-ado).
FRMPD2_2, Q68DX3, sequence (Q68DX3 944-1038): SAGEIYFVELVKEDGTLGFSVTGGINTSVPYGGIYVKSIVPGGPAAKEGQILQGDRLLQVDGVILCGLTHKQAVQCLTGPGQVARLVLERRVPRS
Design: key: below the threshold = too weak to quantify, mostly under pKd 3.1 to 4

| pKd | Binder |
| --- | --- |
| below the threshold | B1 |
| below the threshold | B2 |

The binders below were run against GRIP2_3, Q9C0E4 (assay: holdup assay). Settings: plain residues with an end cap or a label only (N-terminal biotin on a linker: ado-ado).
GRIP2_3, Q9C0E4, sequence (Q9C0E4 238-339): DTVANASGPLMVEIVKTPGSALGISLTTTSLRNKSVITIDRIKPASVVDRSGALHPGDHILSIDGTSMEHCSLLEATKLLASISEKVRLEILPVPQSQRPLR
Design: key: below the threshold = too weak to quantify, mostly under pKd 3.1 to 4

| pKd | Binder |
| --- | --- |
| below the threshold | B1 |
| below the threshold | B2 |

The binders below were run against FRMPD2_1, Q68DX3 (assay: holdup assay). Settings: plain residues with an end cap or a label only (N-terminal biotin on a linker: ado-ado).
FRMPD2_1, Q68DX3, sequence (Q68DX3 770-861): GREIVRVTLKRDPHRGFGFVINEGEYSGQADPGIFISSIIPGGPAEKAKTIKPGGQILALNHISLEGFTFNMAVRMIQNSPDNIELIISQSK
Design: key: below the threshold = too weak to quantify, mostly under pKd 3.1 to 4

| pKd | Binder |
| --- | --- |
| below the threshold | B1 |
| below the threshold | B2 |

The binders below were run against DLG2_3, Q15700 (assay: holdup assay). Settings: plain residues with an end cap or a label only (N-terminal biotin on a linker: ado-ado).
Design: key: below the threshold = too weak to quantify, mostly under pKd 3.1 to 4

| pKd | Binder |
| --- | --- |
| below the threshold | B1 |
| below the threshold | B2 |

Each binder was assayed against T9, SNTA1, Q13424 (assay: holdup assay). Settings: plain residues with an end cap or a label only (N-terminal biotin on a linker: ado-ado).
Design: key: below the threshold = too weak to quantify, mostly under pKd 3.1 to 4

| pKd | Binder |
| --- | --- |
| below the threshold | B1 |
| 3.75 | B2 |

The binders below were run against T10, TX1BP3, O14907 (assay: holdup assay). Settings: plain residues with an end cap or a label only (N-terminal biotin on a linker: ado-ado).
Design: key: below the threshold = too weak to quantify, mostly under pKd 3.1 to 4

| pKd | Binder |
| --- | --- |
| below the threshold | B1 |
| below the threshold | B2 |

These binders were tested against T11, APBA3_1, O96018 (assay: holdup assay). Settings: plain residues with an end cap or a label only (N-terminal biotin on a linker: ado-ado).
Design: key: below the threshold = too weak to quantify, mostly under pKd 3.1 to 4

| pKd | Binder |
| --- | --- |
| below the threshold | B1 |
| below the threshold | B2 |

The binders below were run against FRMPD3, Q5JV73 (assay: holdup assay). Settings: plain residues with an end cap or a label only (N-terminal biotin on a linker: ado-ado).
FRMPD3, Q5JV73, sequence (Q5JV73 12-100): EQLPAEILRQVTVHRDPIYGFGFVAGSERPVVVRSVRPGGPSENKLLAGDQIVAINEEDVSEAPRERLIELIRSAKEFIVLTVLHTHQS
Design: key: below the threshold = too weak to quantify, mostly under pKd 3.1 to 4

| pKd | Binder |
| --- | --- |
| below the threshold | B1 |
| 4.16 | B2 |

Each binder was assayed against Inadl_4, Q8NI35 (assay: holdup assay). Settings: plain residues with an end cap or a label only (N-terminal biotin on a linker: ado-ado).
Inadl_4, Q8NI35, sequence (Q8NI35 547-651): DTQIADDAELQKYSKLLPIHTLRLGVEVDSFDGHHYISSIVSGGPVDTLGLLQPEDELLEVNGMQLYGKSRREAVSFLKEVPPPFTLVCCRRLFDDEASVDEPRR
Design: key: below the threshold = too weak to quantify, mostly under pKd 3.1 to 4

| pKd | Binder |
| --- | --- |
| below the threshold | B1 |
| below the threshold | B2 |

These binders were tested against T12, HTRA3, P83110 (assay: holdup assay). Settings: plain residues with an end cap or a label only (N-terminal biotin on a linker: ado-ado).
Design: key: below the threshold = too weak to quantify, mostly under pKd 3.1 to 4

| pKd | Binder |
| --- | --- |
| below the threshold | B1 |
| below the threshold | B2 |

What follows are binders tested against GORASP1, Q9BQQ3 (assay: holdup assay). Settings: plain residues with an end cap or a label only (N-terminal biotin on a linker: ado-ado).
GORASP1, Q9BQQ3, sequence (Q9BQQ3 1-208): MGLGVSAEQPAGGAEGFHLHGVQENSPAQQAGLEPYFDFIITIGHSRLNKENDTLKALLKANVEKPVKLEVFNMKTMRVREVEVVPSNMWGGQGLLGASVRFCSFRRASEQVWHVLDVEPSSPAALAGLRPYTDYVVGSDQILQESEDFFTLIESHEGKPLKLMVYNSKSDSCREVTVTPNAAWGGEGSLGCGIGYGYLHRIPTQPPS
Design: key: below the threshold = too weak to quantify, mostly under pKd 3.1 to 4

| pKd | Binder |
| --- | --- |
| below the threshold | B1 |
| below the threshold | B2 |

These binders were tested against PDZRN4_1, Q6ZMN7 (assay: holdup assay). Settings: plain residues with an end cap or a label only (N-terminal biotin on a linker: ado-ado).
PDZRN4_1, Q6ZMN7, sequence (Q6ZMN7 213-318): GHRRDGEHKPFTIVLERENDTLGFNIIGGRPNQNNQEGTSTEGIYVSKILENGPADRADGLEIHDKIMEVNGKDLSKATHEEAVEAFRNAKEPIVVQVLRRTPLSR
Design: key: below the threshold = too weak to quantify, mostly under pKd 3.1 to 4

| pKd | Binder |
| --- | --- |
| below the threshold | B1 |
| below the threshold | B2 |

Each binder was assayed against MAGI2_4, Q86UL8 (assay: holdup assay). Settings: plain residues with an end cap or a label only (N-terminal biotin on a linker: ado-ado).
MAGI2_4, Q86UL8, sequence (Q86UL8 772-865): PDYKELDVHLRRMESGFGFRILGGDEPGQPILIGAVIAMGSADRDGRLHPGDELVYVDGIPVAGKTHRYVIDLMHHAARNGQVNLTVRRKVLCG
Design: key: below the threshold = too weak to quantify, mostly under pKd 3.1 to 4

| pKd | Binder |
| --- | --- |
| below the threshold | B1 |
| below the threshold | B2 |
